{
  "source": "paper PMC6847799",
  "about": "“A global functional analysis of missense mutations reveals two major hotspots in the PALB2 tumor suppressor” (Nucleic Acids Research, 2019)",
  "molecular_target": "T1, GAL4DBD-BRCA1 wild-type (aa 1315–1863) (UniProt P38398 1315-1863)",
  "T1 construct": "BRCA1, aa 1315-1863; bait of the mammalian two-hybrid; source: HEK293FT, transfected (mammalian two-hybrid fusion)",
  "T1 sequence (P38398 1315-1863)": "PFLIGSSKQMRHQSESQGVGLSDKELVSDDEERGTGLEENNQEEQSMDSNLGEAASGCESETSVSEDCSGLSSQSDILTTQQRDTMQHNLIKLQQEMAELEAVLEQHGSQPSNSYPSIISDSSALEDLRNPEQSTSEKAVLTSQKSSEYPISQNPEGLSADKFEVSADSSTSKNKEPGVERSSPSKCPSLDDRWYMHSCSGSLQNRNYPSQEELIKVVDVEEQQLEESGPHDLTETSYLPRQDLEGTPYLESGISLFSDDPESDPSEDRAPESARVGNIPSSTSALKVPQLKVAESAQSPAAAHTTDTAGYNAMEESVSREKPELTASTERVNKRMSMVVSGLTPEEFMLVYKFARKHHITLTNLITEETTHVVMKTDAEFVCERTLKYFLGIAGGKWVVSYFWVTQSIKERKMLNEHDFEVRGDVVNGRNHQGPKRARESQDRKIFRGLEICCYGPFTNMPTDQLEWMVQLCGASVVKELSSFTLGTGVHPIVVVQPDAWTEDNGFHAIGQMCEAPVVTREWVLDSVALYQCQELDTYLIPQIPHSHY",
  "assay": "two-hybrid; mammalian two-hybrid in HEK293FT cells: VP16 AD-PALB2 N- or C-terminal construct (prey) co-transfected with GAL4DBD-BRCA1 or GAL4DBD-BRCA2 (bait), pG5Luc reporter and pGR-TK internal control; dual-luciferase read 24 h post-transfection; mean percentage luciferase activity of 3 independent experiments",
  "conditions": "partners not purified",
  "data": [
    {"binder": "VP16 AD-PALB2 N-terminal wild-type (aa 1–319) (domain or fragment, human, UniProt Q86YC2 1-319, looked up, PALB2 (1186-amino acid protein), human, aa 1-319; cloned in pVP16 downstream of the VP16 AD cassette; prey; also called PALB2 WT; PALB2 N-terminal construct; source: HEK293FT, transfected (mammalian two-hybrid fusion)) MDEPPGKPLSCEEKEKLKEKLAFLKREYSKTLARLQRAQRAEKIKHSIKKTVEEQDCLSQQDLSPQLKHSEPKNKICVYDKLHIKTHLDEETGEKTSITLDVGPESFNPGDGPGGLPIQRTDDTQEHFPHRVSDPSGEQKQKLPSRRKKQQKRTFISQERDCVFGTDSLRLSGKRLKEQEEISSKNPARSPVTEIRTHLLSLKSELPDSPEPVTEINEDSVLIPPTAQPEKGVDTFLRRPNFTRATTVPLQTLSDSGSSQHLEHIPPKGSSELTTHDLKNIRFTSPVSLEAQGKKMTVSTDNLLVNKAISKSGQLPTSS", "values": [
      {"measurement": "fold increase of luciferase-reporter activity over BRCA1 alone", "result": 2, "unit": "fold"}
    ]}
  ]
}
